First the molecules themselves.
B1: BTBD1 (parent)
chain: IVGFGLYGSIHGPTDYQVNIQIIE
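Also: lentivirally expressed fusions sorted by FACS into six bins by GFP to DsRed ratio, PSI derived from sequencing read proportions per bin multiplied by bin number.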

In this data set the parent is B1. The experiment in a line: protein stability index of a GFP-peptide fusion (GPS, HEK-293T) (PSI 1-6); higher = more stable. The note with it: c terminus: a fixed tail appended.
Turning to IVGFGLYNSIHGPTDYQVNIQIIE, the protein stability index was 2.5.

With IVGFGLYMSIHGPTDYQVNIQIIE, the protein stability index turned out to be 2.04.

Regarding IVGFGLYKSIHGPTDYQVNIQIIE, the protein stability index is 2.89.

As to IVGFGLYQSIHGPTDYQVNIQIIE, the protein stability index was determined as 3.42.

As to IVGFGLYYSIHGPTDYQVNIQIIE, the protein stability index was determined as 2.35.

Consider IVGFGLYISIHGPTDYQVNIQIIE, for which the protein stability index is 2.28.

Take IVGFGLYRSIHGPTDYQVNIQIIE: the protein stability index worked out at 1.45.

Consider IVGFGLYPSIHGPTDYQVNIQIIE, for which the protein stability index worked out at 4.75.

Turning to IVGFGLYTSIHGPTDYQVNIQIIE, the protein stability index amounted to 2.37.

On to IVGFGLYLSIHGPTDYQVNIQIIE, for which the protein stability index stood at 2.81.

For IVGFGLYHSIHGPTDYQVNIQIIE, the protein stability index amounted to 2.61.

Turning to IVGFGLYFSIHGPTDYQVNIQIIE, the protein stability index is 2.78.

For the variant IVGFGLYDSIHGPTDYQVNIQIIE, the protein stability index came out at 2.86.

For the variant IVGFGLYGSIHDPTDYQVNIQIIE, the protein stability index is 3.52.

Regarding IVGFGLYGSIHQPTDYQVNIQIIE, the protein stability index stood at 3.29.

Consider IVGFGLYGSIHMPTDYQVNIQIIE, for which the protein stability index amounted to 2.27.

In the case of IVGFGLYGSIHYPTDYQVNIQIIE, the protein stability index is 1.89.

With IVGFGLYGSIHSPTDYQVNIQIIE, the protein stability index came out at 3.04.

As to IVGFGLYGSIHIPTDYQVNIQIIE, the protein stability index stood at 1.72.

As for IVGFGLYGSIHEPTDYQVNIQIIE, the protein stability index was 3.19.

For the variant IVGFGLYGSIHWPTDYQVNIQIIE, the protein stability index turned out to be 2.56.

As to IVGFGLYGSIHKPTDYQVNIQIIE, the protein stability index came out at 4.19.

For the variant IVGFGLYGSIHLPTDYQVNIQIIE, the protein stability index is 3.53.

For IVGFGLYGSDHGPTDYQVNIQIIE, the protein stability index is 2.74.

With IVGFGLYGSCHGPTDYQVNIQIIE, the protein stability index is 3.14.

Take IVGFGLYGSTHGPTDYQVNIQIIE: the protein stability index was 3.32.

Take IVGFGLYGSGHGPTDYQVNIQIIE: the protein stability index was determined as 5.97.

For IVGFGLYGSEHGPTDYQVNIQIIE, the protein stability index is 2.58.

Regarding IVGFGLYGSKHGPTDYQVNIQIIE, the protein stability index was 1.76.

As for IVGFGLYGSQHGPTDYQVNIQIIE, the protein stability index stood at 3.45.

As for IVGFGLYGSWHGPTDYQVNIQIIE, the protein stability index was determined as 1.64.

Take IVGFGLYGSVHGPTDYQVNIQIIE: the protein stability index came to 2.09.

On to IVGFGLYGSPHGPTDYQVNIQIIE, for which the protein stability index turned out to be 2.78.

Take IVGFGLYGSFHGPTDYQVNIQIIE: the protein stability index stood at 3.05.

As to IVGFGLYGSMHGPTDYQVNIQIIE, the protein stability index was found to be 1.95.

As for RVGFGLYGSIHGPTDYQVNIQIIE, the protein stability index was 1.65.

Regarding QVGFGLYGSIHGPTDYQVNIQIIE, the protein stability index came to 3.04.

Take EVGFGLYGSIHGPTDYQVNIQIIE: the protein stability index was 3.29.

With TVGFGLYGSIHGPTDYQVNIQIIE, the protein stability index was 1.82.

In the case of PVGFGLYGSIHGPTDYQVNIQIIE, the protein stability index came out at 1.82.

In the case of KVGFGLYGSIHGPTDYQVNIQIIE, the protein stability index was 2.14.

In the case of FVGFGLYGSIHGPTDYQVNIQIIE, the protein stability index was 3.14.

With VVGFGLYGSIHGPTDYQVNIQIIE, the protein stability index amounted to 3.69.

Consider SVGFGLYGSIHGPTDYQVNIQIIE, for which the protein stability index was 1.77.

As to GVGFGLYGSIHGPTDYQVNIQIIE, the protein stability index stood at 3.43.

Take HVGFGLYGSIHGPTDYQVNIQIIE: the protein stability index came to 2.38.

Turning to DVGFGLYGSIHGPTDYQVNIQIIE, the protein stability index was 2.03.

As for NVGFGLYGSIHGPTDYQVNIQIIE, the protein stability index was 2.16.

As for CVGFGLYGSIHGPTDYQVNIQIIE, the protein stability index was 2.91.

As to IVGFGLYGYIHGPTDYQVNIQIIE, the protein stability index came out at 2.58.

With IVGFGLYGWIHGPTDYQVNIQIIE, the protein stability index came to 2.76.

As to IVGFGLYGRIHGPTDYQVNIQIIE, the protein stability index stood at 2.67.

Turning to IVGFGLYGEIHGPTDYQVNIQIIE, the protein stability index was determined as 2.74.

On to IVGFGLYGVIHGPTDYQVNIQIIE, for which the protein stability index is 3.54.

With IVGFGLYGAIHGPTDYQVNIQIIE, the protein stability index was 1.82.

For the variant IVGFGLYGFIHGPTDYQVNIQIIE, the protein stability index is 2.95.

IVGFGLYGLIHGPTDYQVNIQIIE: the protein stability index stood at 3.19.

For IVGFGLYGTIHGPTDYQVNIQIIE, the protein stability index amounted to 1.99.

As to IVGFGLYGNIHGPTDYQVNIQIIE, the protein stability index is 3.18.

With IVGFGLYGHIHGPTDYQVNIQIIE, the protein stability index came out at 1.88.

In the case of IVGFGLYGIIHGPTDYQVNIQIIE, the protein stability index is 2.88.

In the case of IVGFGLYGQIHGPTDYQVNIQIIE, the protein stability index is 2.56.

On to IMGFGLYGSIHGPTDYQVNIQIIE, for which the protein stability index turned out to be 2.49.

As for IRGFGLYGSIHGPTDYQVNIQIIE, the protein stability index is 2.96.

Turning to IQGFGLYGSIHGPTDYQVNIQIIE, the protein stability index was determined as 4.24.

Turning to IDGFGLYGSIHGPTDYQVNIQIIE, the protein stability index was 2.79.

In the case of IKGFGLYGSIHGPTDYQVNIQIIE, the protein stability index is 2.02.

On to IPGFGLYGSIHGPTDYQVNIQIIE, for which the protein stability index worked out at 1.76.

Take IWGFGLYGSIHGPTDYQVNIQIIE: the protein stability index was 3.31.

Turning to IGGFGLYGSIHGPTDYQVNIQIIE, the protein stability index is 2.59.

As for IYGFGLYGSIHGPTDYQVNIQIIE, the protein stability index turned out to be 2.16.

With IIGFGLYGSIHGPTDYQVNIQIIE, the protein stability index was determined as 2.6.

For IAGFGLYGSIHGPTDYQVNIQIIE, the protein stability index came to 2.81.

As to ICGFGLYGSIHGPTDYQVNIQIIE, the protein stability index was determined as 3.88.

As to IVVFGLYGSIHGPTDYQVNIQIIE, the protein stability index stood at 3.82.

As for IVKFGLYGSIHGPTDYQVNIQIIE, the protein stability index was found to be 3.18.

Turning to IVWFGLYGSIHGPTDYQVNIQIIE, the protein stability index stood at 4.95.

IVEFGLYGSIHGPTDYQVNIQIIE: the protein stability index amounted to 2.82.

For IVRFGLYGSIHGPTDYQVNIQIIE, the protein stability index came to 4.02.

With IVPFGLYGSIHGPTDYQVNIQIIE, the protein stability index was determined as 2.64.

Regarding IVNFGLYGSIHGPTDYQVNIQIIE, the protein stability index is 3.38.

Regarding IVAFGLYGSIHGPTDYQVNIQIIE, the protein stability index amounted to 3.04.

IVDFGLYGSIHGPTDYQVNIQIIE: the protein stability index came out at 3.42.

On to IVFFGLYGSIHGPTDYQVNIQIIE, for which the protein stability index was found to be 3.55.

With IVSFGLYGSIHGPTDYQVNIQIIE, the protein stability index worked out at 1.66.

As for IVGFGLYGSIPGPTDYQVNIQIIE, the protein stability index came to 2.57.

Take IVGFGLYGSIKGPTDYQVNIQIIE: the protein stability index turned out to be 1.55.

IVGFGLYGSICGPTDYQVNIQIIE: the protein stability index was 2.58.

Consider IVGFGLYGSIVGPTDYQVNIQIIE, for which the protein stability index amounted to 3.12.

Regarding IVGFGLYGSIDGPTDYQVNIQIIE, the protein stability index came out at 1.97.

On to IVGFGLYGSINGPTDYQVNIQIIE, for which the protein stability index stood at 3.26.

IVGFGLCGSIHGPTDYQVNIQIIE: the protein stability index came to 2.57.

For IVGFGLRGSIHGPTDYQVNIQIIE, the protein stability index stood at 4.6.

With IVGFGLEGSIHGPTDYQVNIQIIE, the protein stability index worked out at 3.6.

The values above are taken from the supplement of paper PMC10567573.
